Experimental data published in paper PMC10754148 (Cell, 2023).

B1: FLAG-LRR recombinant protein (LRR domain of LRRC37B, amino acids 468-841) (domain or fragment)
chain: AAAEKTRAPHPDQVQTLHRSLTEVTGPPTKLESSQDSLVQSETAPEEQKASTSTNICELCTCGDETLSCVGLSPKQRLRQVPVPEPDTYNGIFTTLNFQGNYISYLDGNVWKAYSWTEKLILSENYLTELPKDSFEGLLYLQYLDLSCNKIRYIERQTFESLPFLQYINLGCNLITKLSLGTFQAWHGMQFLHNLILNRNPLTTVEDPYLFELPALKYLDMGTTHITLTTLKNILTMTVELEKLILPSHMACCLCQFKNSIEAVCKTVKLHCNTACLTNSIHCPEEASVGNPEGAFMKMLQARKQHMSTQLTIESEAPSDSSGINLSGFGGDQLEIQLTEQLRSLIPNEDVRKFMSHVIRTLKMECSETHVQGSCAKLSTG
B2: F13ExonS-biotin synthetic peptide (peptide)
peptide: MAAAIASSLIRQKRQAREREKSNACKCVSSPSKGKTSCDKNKLNVFSRVKLFGSKKRRRRRPE
modifications: not fully specified (C-terminus)

Experiments:
[1] = target: T1, 5/6FAM-F13ExonS synthetic peptide (5/6FAM on the N-terminus); assay: fluorescence polarisation
T1 peptide: B2 peptide

[2] = target: pdisplay-LRRC37B-LRR_ECTO (amino acids 468-841) (human, UniProt Q96QE4 468-841); assay: cell-surface binding assay
[3] = target: pdisplay-LRRC37B_ECTO (amino acids 28-905) (human, UniProt Q96QE4 28-905); assay: cell-surface binding assay
[4] = target: Nav1.6 (SCN8A), transfected cDNA (UniProt Q9UQD0 1-1980); assay: cell-surface binding assay
Sequence of Nav1.6 (SCN8A), transfected cDNA (Q9UQD0 whole entry): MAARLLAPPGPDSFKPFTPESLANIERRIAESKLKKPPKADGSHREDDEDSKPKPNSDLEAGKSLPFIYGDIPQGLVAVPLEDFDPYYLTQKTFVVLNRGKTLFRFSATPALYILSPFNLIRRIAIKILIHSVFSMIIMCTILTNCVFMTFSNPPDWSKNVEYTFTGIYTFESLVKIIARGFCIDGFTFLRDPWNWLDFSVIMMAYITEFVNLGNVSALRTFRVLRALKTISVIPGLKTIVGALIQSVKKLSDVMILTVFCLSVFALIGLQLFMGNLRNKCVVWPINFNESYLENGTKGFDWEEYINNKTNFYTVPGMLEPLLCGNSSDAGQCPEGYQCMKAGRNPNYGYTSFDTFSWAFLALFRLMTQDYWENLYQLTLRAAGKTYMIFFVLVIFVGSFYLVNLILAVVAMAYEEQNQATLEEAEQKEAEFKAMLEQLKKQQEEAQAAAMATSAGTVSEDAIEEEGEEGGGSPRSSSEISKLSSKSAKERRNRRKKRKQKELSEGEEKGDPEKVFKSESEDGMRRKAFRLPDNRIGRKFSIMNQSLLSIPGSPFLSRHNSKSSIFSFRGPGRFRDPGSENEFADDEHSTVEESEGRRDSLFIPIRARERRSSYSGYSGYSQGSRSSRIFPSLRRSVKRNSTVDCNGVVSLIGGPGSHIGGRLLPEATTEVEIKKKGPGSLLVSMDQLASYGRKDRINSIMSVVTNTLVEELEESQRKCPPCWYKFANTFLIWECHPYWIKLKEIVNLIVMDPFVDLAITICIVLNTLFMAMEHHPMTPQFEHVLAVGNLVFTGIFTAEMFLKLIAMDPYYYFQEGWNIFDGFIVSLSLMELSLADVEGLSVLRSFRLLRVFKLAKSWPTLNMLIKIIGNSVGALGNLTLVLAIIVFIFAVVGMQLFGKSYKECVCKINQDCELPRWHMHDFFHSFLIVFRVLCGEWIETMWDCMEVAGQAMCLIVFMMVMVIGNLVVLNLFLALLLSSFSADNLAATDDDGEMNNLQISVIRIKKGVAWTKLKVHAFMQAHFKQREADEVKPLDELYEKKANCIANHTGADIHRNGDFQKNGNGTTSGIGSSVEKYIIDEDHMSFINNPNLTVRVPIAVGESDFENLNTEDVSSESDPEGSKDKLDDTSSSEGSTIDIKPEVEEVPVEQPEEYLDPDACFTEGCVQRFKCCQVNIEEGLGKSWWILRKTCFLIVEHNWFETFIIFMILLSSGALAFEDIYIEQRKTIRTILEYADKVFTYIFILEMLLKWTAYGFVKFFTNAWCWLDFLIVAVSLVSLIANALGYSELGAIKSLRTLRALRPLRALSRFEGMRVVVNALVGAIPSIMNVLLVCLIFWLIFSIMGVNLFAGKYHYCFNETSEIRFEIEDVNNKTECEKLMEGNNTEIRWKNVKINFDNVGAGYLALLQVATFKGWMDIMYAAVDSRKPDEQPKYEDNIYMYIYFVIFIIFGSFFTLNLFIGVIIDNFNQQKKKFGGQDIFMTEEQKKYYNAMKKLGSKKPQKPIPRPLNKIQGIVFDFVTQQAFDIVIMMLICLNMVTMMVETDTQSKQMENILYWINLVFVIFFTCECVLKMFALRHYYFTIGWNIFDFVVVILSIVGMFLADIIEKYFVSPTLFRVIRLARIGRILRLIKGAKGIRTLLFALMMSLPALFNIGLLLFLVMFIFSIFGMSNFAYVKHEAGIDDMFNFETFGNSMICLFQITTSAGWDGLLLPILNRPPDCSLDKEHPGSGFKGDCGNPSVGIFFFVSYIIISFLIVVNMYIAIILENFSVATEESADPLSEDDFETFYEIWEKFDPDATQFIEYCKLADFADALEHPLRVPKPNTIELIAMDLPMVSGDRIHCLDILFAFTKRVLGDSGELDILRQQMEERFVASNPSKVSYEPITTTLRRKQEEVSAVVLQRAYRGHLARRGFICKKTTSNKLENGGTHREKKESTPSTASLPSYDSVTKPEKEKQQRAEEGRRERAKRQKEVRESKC

Sequence of pdisplay-LRRC37B_ECTO (amino acids 28-905) (Q96QE4 28-905): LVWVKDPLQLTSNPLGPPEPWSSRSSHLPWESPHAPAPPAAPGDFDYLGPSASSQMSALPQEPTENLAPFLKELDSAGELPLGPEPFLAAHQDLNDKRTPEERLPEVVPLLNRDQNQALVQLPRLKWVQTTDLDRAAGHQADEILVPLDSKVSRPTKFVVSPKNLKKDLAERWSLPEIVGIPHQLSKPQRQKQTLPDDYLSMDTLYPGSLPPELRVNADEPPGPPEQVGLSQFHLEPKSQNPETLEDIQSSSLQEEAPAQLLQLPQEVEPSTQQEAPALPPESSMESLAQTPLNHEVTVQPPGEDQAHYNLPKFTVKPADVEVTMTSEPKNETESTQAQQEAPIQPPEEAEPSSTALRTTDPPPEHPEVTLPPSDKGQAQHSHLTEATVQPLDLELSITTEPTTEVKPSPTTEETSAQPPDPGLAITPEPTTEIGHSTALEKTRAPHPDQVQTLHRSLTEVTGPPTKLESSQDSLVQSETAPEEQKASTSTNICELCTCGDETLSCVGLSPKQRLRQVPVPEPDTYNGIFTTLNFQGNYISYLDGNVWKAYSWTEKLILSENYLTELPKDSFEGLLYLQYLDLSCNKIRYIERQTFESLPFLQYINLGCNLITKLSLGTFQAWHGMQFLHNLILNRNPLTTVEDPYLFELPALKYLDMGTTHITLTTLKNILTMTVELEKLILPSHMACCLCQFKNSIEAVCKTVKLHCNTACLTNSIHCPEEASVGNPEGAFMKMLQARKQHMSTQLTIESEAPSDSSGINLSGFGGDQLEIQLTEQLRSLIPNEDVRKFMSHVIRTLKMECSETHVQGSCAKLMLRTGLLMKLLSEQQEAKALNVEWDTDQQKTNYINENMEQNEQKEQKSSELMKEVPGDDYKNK

Binder	Kd [1] [nM]	Kd [2] [nM]	Kd [3] [nM]	Kd [4] [nM]
B1	530	–	–	–
B2	–	1.18 ± 0.28	1.1 ± 0.261	49.83 ± 0.261
